The record followed here is US7067646 (Dana-Farber, dated 2006).

In test [1] the target is T1, MTAF600 (microtubule associated factor 600) (human, UniProt Q5T4S7 1-5183).
T1 construct: Native endogenous protein of HeLa nuclear extracts (5183 residues); also called MT-associated factor (MTAF) 600; 600 kDa subunit
Put plainly: immunoprecipitation with p107 antibody from HeLa extract, anti-MTAF600 immunoblot.

In test [2] the target is T1, MTAF600 (microtubule associated factor …). Put plainly: immunoprecipitation with p130 antibody from HeLa extract, anti-MTAF600 immunoblot.

T1 sequence (Q5T4S7 other isoform, or with tags, fused parts or gaps limits assumed): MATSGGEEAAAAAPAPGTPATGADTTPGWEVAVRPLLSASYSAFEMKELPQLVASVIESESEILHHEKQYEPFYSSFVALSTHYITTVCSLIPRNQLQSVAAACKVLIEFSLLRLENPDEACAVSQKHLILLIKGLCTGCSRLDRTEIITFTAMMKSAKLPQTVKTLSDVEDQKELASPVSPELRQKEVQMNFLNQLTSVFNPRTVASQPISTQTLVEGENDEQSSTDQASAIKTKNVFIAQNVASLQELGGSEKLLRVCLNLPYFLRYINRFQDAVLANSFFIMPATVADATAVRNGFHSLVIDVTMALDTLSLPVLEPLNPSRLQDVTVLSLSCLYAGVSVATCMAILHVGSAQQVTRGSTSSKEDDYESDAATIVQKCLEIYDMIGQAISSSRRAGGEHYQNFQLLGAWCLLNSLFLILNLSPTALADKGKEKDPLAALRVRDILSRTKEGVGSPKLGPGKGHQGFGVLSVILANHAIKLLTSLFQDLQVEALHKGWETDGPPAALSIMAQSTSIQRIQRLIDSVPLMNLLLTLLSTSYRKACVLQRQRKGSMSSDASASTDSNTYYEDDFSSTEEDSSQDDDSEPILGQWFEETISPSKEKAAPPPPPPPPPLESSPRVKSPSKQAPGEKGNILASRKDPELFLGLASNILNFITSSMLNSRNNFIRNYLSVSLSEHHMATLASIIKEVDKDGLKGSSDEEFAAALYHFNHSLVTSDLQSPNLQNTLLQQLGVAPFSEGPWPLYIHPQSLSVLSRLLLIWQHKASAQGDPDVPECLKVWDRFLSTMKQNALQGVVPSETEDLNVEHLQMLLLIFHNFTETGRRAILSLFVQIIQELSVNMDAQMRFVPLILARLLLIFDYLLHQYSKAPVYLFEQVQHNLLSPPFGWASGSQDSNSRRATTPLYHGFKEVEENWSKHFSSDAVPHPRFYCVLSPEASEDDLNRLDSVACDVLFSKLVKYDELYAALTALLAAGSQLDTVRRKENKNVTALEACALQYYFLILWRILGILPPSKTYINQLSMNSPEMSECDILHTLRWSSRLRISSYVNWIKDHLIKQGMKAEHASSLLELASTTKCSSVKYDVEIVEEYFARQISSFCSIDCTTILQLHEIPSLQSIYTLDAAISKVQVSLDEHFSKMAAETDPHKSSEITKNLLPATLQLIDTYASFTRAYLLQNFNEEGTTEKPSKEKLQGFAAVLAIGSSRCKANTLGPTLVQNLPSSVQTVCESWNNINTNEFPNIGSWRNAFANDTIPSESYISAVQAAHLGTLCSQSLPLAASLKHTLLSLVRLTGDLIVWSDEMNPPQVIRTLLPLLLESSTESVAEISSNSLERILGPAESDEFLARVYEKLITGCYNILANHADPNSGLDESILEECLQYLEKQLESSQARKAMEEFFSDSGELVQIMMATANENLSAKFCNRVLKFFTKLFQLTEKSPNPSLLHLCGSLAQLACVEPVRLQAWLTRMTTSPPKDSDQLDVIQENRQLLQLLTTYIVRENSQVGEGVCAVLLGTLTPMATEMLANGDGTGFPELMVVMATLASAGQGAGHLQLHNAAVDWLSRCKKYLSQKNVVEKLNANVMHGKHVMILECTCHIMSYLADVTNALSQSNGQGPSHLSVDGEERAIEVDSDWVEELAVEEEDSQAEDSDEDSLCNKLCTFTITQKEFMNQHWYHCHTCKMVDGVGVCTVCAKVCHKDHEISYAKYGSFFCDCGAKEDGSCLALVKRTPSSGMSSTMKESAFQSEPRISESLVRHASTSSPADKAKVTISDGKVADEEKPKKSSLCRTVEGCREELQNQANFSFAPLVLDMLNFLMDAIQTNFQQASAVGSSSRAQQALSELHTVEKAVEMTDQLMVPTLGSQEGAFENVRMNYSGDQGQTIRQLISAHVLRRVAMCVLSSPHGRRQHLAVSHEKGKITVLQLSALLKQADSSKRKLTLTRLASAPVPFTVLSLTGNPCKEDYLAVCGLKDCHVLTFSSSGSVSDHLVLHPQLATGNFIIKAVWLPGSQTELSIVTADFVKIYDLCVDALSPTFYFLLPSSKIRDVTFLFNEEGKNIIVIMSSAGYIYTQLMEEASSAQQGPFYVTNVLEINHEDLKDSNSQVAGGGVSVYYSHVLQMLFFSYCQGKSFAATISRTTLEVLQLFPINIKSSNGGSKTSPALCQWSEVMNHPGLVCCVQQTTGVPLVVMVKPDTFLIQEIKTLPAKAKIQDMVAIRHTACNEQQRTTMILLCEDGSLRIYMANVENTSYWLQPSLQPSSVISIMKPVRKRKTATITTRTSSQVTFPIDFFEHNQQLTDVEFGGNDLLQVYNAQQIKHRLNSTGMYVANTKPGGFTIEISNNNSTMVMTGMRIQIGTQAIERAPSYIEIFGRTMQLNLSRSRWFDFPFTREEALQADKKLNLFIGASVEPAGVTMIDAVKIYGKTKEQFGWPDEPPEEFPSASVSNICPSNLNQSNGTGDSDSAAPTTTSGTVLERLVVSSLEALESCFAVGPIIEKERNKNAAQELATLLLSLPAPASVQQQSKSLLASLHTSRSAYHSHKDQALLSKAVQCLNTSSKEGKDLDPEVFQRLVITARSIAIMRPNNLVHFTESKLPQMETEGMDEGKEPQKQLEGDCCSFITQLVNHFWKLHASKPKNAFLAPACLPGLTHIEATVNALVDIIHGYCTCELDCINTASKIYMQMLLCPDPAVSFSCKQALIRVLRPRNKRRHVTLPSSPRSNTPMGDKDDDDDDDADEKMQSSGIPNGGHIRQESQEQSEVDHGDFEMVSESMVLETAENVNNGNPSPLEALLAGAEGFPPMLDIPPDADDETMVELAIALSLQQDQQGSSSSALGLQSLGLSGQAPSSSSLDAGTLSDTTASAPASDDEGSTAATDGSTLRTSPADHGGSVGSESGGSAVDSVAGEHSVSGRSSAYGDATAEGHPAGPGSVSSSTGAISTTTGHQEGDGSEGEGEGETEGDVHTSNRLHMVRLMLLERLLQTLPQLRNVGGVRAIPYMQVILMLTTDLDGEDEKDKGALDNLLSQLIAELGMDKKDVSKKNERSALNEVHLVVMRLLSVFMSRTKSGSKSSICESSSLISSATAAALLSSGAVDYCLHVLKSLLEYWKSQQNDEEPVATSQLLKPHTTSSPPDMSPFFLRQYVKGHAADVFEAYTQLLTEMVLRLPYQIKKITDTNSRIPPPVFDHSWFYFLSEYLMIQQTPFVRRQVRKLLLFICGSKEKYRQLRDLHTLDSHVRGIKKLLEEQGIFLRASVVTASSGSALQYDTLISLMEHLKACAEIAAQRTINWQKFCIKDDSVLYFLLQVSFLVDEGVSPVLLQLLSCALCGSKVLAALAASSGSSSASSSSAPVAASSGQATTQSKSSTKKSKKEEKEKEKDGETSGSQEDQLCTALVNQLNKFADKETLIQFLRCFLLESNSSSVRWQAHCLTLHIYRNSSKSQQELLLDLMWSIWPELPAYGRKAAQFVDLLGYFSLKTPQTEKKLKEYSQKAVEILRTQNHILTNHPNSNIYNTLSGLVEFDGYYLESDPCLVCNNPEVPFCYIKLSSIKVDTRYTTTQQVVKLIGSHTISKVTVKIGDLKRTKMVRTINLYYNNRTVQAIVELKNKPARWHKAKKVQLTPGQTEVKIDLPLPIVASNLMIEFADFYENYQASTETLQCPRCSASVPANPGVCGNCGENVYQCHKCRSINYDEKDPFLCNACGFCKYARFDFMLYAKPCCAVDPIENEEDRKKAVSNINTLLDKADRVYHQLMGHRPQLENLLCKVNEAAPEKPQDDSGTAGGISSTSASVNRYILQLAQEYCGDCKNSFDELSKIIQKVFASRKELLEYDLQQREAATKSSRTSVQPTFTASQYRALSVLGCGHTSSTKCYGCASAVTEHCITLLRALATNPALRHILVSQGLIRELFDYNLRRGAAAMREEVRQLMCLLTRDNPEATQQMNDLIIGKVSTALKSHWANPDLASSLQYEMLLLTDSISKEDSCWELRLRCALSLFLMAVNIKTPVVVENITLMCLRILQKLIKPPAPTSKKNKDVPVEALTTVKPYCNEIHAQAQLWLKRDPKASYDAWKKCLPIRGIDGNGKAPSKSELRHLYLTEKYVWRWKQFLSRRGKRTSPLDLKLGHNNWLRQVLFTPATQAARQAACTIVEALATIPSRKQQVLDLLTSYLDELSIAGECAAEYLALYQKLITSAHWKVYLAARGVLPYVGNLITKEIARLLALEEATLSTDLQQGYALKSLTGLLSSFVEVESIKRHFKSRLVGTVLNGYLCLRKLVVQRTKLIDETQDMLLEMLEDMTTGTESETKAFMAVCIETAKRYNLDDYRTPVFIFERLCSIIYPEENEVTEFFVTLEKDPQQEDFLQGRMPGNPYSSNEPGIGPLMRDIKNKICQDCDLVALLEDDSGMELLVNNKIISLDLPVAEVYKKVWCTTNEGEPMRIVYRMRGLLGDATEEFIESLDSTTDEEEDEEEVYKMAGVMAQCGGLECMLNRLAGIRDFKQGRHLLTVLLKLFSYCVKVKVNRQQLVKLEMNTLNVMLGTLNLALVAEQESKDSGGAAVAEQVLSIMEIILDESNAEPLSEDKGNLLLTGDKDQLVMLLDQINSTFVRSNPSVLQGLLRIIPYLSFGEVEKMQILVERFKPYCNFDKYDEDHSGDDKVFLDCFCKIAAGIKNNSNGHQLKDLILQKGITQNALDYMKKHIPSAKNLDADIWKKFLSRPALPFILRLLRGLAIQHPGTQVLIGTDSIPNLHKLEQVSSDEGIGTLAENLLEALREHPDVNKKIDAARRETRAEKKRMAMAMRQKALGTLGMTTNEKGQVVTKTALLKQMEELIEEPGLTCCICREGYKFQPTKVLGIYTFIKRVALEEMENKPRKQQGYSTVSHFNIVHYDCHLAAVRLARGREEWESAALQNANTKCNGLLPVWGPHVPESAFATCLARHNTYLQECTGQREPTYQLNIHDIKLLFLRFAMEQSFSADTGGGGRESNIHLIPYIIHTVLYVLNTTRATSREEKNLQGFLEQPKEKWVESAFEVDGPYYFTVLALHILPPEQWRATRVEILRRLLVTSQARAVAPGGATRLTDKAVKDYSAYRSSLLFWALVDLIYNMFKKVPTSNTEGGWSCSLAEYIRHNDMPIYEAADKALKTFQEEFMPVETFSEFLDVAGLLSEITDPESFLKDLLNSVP

B1: p107, endogenous, HeLa extract (other, UniProt P28749 1-1068, looked up)
chain: MFEDKPHAEGAAVVAAAGEALQALCQELNLDEGSAAEALDDFTAIRGNYSLEGEVTHWLACSLYVACRKSIIPTVGKGIMEGNCVSLTRILRSAKLSLIQFFSKMKKWMDMSNLPQEFRERIERLERNFEVSTVIFKKYEPIFLDIFQNPYEEPPKLPRSRKQRRIPCSVKDLFNFCWTLFVYTKGNFRMIGDDLVNSYHLLLCCLDLIFANAIMCPNRQDLLNPSFKGLPSDFHTADFTASEEPPCIIAVLCELHDGLLVEAKGIKEHYFKPYISKLFDRKILKGECLLDLSSFTDNSKAVNKEYEEYVLTVGDFDERIFLGADAEEEIGTPRKFTRDTPLGKLTAQANVEYNLQQHFEKKRSFAPSTPLTGRRYLREKEAVITPVASATQSVSRLQSIVAGLKNAPSDQLINIFESCVRNPVENIMKILKGIGETFCQHYTQSTDEQPGSHIDFAVNRLKLAEILYYKILETVMVQETRRLHGMDMSVLLEQDIFHRSLMACCLEIVLFAYSSPRTFPWIIEVLNLQPFYFYKVIEVVIRSEEGLSRDMVKHLNSIEEQILESLAWSHDSALWEALQVSANKVPTCEEVIFPNNFETGNGGNVQGHLPLMPMSPLMHPRVKEVRTDSGSLRRDMQPLSPISVHERYSSPTAGSAKRRLFGEDPPKEMLMDKIITEGTKLKIAPSSSITAENVSILPGQTLLTMATAPVTGTTGHKVTIPLHGVANDAGEITLIPLSMNTNQESKVKSPVSLTAHSLIGASPKQTNLTKAQEVHSTGINRPKRTGSLALFYRKVYHLASVRLRDLCLKLDVSNELRRKIWTCFEFTLVHCPDLMKDRHLDQLLLCAFYIMAKVTKEERTFQEIMKSYRNQPQANSHVYRSVLLKSIPREVVAYNKNINDDFEMIDCDLEDATKTPDCSSGPVKEERGDLIKFYNTIYVGRVKSFALKYDLANQDHMMDAPPLSPFPHIKQQPGSPRRISQQHSIYISPHKNGSGLTPRSALLYKFNGSPSKSLKDINNMIRQGEQRTKKRVIAIDSDAESPAKRVCQENDDVLLKRLQDVVSERANH
In the case of B1, in test [1], the binding result is listed as “binds”.

B2: p130, endogenous, HeLa extract (other, UniProt Q08999 1-1139, looked up)
chain: MPSGGDQSPPPPPPPPAAAASDEEEEDDGEAEDAAPPAESPTPQIQQRFDELCSRLNMDEAARAEAWDSYRSMSESYTLEGNDLHWLACALYVACRKSVPTVSKGTVEGNYVSLTRILKCSEQSLIEFFNKMKKWEDMANLPPHFRERTERLERNFTVSAVIFKKYEPIFQDIFKYPQEEQPRQQRGRKQRRQPCTVSEIFHFCWVLFIYAKGNFPMISDDLVNSYHLLLCALDLVYGNALQCSNRKELVNPNFKGLSEDFHAKDSKPSSDPPCIIEKLCSLHDGLVLEAKGIKEHFWKPYIRKLYEKKLLKGKEENLTGFLEPGNFGESFKAINKAYEEYVLSVGNLDERIFLGEDAEEEIGTLSRCLNAGSGTETAERVQMKNILQQHFDKSKALRISTPLTGVRYIKENSPCVTPVSTATHSLSRLHTMLTGLRNAPSEKLEQILRTCSRDPTQAIANRLKEMFEIYSQHFQPDEDFSNCAKEIASKHFRFAEMLYYKVLESVIEQEQKRLGDMDLSGILEQDAFHRSLLACCLEVVTFSYKPPGNFPFITEIFDVPLYHFYKVIEVFIRAEDGLCREVVKHLNQIEEQILDHLAWKPESPLWEKIRDNENRVPTCEEVMPPQNLERADEICIAGSPLTPRRVTEVRADTGGLGRSITSPTTLYDRYSSPPASTTRRRLFVENDSPSDGGTPGRMPPQPLVNAVPVQNVSGETVSVTPVPGQTLVTMATATVTANNGQTVTIPVQGIANENGGITFFPVQVNVGGQAQAVTGSIQPLSAQALAGSLSSQQVTGTTLQVPGQVAIQQISPGGQQQKQGQSVTSSSNRPRKTSSLSLFFRKVYHLAAVRLRDLCAKLDISDELRKKIWTCFEFSIIQCPELMMDRHLDQLLMCAIYVMAKVTKEDKSFQNIMRCYRTQPQARSQVYRSVLIKGKRKRRNSGSSDSRSHQNSPTELNKDRTSRDSSPVMRSSSTLPVPQPSSAPPTPTRLTGANSDMEEEERGDLIQFYNNIYIKQIKTFAMKYSQANMDAPPLSPYPFVRTGSPRRIQLSQNHPVYISPHKNETMLSPREKIFYYFSNSPSKRLREINSMIRTGETPTKKRGILLEDGSESPAKRICPENHSALLRRLQDVANDRGSH
On to B2, for which the binding result in test [2] is on record as “binds”.
